{
  "source": "paper PMC6065357",
  "key": {"[1]": {"target": "NGF in the sSorCS2-NGF crystal (degradation product of the proNGF construct) (UniProt P01139)", "assay": "crystal structure; sSorCS2 mixed with proNGF 1:1.1, 1 mM calcium chloride; proNGF degraded to NGF in the drop; 0.225 M MES/bis-tris pH 6.6; 3.9 Å"}, "[2]": {"target": "mouse SorCS2 mature extracellular segment (sSorCS2, residues 117-1072) (mouse) (UniProt Q9EPR5)", "sequence (Q9EPR5 117-1072)": "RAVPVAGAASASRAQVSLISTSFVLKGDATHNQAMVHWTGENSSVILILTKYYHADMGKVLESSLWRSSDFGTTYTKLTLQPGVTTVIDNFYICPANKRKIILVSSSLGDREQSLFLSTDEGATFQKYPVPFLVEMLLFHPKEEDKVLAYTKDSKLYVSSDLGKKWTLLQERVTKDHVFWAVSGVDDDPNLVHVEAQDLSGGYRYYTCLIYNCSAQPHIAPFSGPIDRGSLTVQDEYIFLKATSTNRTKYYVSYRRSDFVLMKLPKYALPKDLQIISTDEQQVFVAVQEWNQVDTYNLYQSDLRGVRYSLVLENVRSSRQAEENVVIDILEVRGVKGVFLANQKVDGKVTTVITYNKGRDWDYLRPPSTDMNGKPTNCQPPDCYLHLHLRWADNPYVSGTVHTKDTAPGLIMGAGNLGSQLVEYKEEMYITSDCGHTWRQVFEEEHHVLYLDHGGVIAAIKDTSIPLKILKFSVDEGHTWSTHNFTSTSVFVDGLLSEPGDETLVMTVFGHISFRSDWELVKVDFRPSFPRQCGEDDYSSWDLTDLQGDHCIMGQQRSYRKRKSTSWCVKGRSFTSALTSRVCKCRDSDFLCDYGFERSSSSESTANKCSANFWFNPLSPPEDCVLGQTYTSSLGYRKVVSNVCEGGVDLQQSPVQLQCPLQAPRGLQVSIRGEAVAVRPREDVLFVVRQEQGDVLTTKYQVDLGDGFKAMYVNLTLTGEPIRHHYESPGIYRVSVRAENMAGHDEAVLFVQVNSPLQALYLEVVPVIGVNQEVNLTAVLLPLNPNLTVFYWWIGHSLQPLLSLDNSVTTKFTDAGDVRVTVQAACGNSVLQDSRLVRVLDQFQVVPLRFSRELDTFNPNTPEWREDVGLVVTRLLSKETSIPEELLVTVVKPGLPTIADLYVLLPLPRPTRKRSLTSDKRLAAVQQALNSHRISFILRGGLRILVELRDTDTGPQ", "assay": "crystal structure; sSorCS2 mixed with proNGF 1:1.1, 1 mM calcium chloride; proNGF degraded to NGF in the drop; 0.225 M MES/bis-tris pH 6.6; 3.9 Å"}, "[3]": {"target": "pro-nerve growth factor (proNGF, residues 19-241, furin sites changed to AA) (UniProt P01139)", "assay": "SPR; IBIS MX96; NGF, proNGF and proBDNF amine-coupled to a P-COOH SensEye sensor; wt and mutant sSorCS2 flowed as analyte; 25 mM HEPES pH 7.4, 150 mM NaCl, 0.005 % Tween 20; 25 °C; equilibrium binding, one site saturation model (two site saturation model for proBDNF)"}, "[4]": {"target": "mouse mature nerve growth factor (NGF) (mouse) (UniProt P01139)", "sequence (P01139 122-241)": "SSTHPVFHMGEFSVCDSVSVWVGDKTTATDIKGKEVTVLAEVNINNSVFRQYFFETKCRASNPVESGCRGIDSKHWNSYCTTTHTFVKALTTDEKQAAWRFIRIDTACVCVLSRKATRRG", "assay": "SPR; IBIS MX96; NGF, proNGF and proBDNF amine-coupled to a P-COOH SensEye sensor; wt and mutant sSorCS2 flowed as analyte; 25 mM HEPES pH 7.4, 150 mM NaCl, 0.005 % Tween 20; 25 °C; equilibrium binding, one site saturation model (two site saturation model for proBDNF)"}},
  "data": [
    {"substance": "NGF in the sSorCS2-NGF crystal (degradation product of the proNGF construct) (from UniProt P01139 122-241) (ligand)", "values": [
      {"measurement": "stoichiometry N", "setting": "[1]", "result": 2},
      {"measurement": "stoichiometry N (NGF chains per sSorCS2 chain)", "setting": "[2]", "result": 2}
    ]},
    {"substance": "mouse SorCS2 mature extracellular segment (sSorCS2, residues 117-1072) (from UniProt Q9EPR5 117-1072) (receptor)", "values": [
      {"measurement": "Kd", "setting": "[3]", "result": 43, "unit": "nM"}
    ]},
    {"substance": "mouse SorCS2 mature extracellular segment (sSorCS2, residues 117-1072), Q9EPR5 117-1072 (receptor; other documents disagree on this pair)", "values": [
      {"measurement": "Kd", "setting": "[4]", "result": 236, "unit": "nM"}
    ]}
  ]
}
